Results on 3 molecules are retold here after publication PMC12650235, “Optimized Aptamer-Conjugated Gold Nanoparticles for Specific Detection of GII.4 Human Norovirus in Feces”.

In data set [1] the test system is GII.4 HuNoV VLP (VP1 capsid) (Human norovirus GII.4 Hu/GII.4/DBM15-156/2015). As to the kind of experiment: BLI. The conditions noted are these: BLI: PBST + 5 mM Mg2+, biotin-aptamer 100 nM, VLP 18.75-150 nM, Octet RED96, ELASA: VLP 3 ug/mL, aptamer 1 uM, CD: 10 mM Tris-HCl pH 7.4, 1.0 mM NaCl, 0.05 mM ….
Data set [2] has the same test system. Nature of the data set: ELASA. The note with it: BLI: PBST + 5 mM Mg2+, biotin-aptamer 100 nM, VLP 18.75-150 nM, Octet RED96; ELASA: VLP 3 ug/mL, aptamer 1 uM; CD: 10 mM Tris-HCl pH 7.4, 1.0 mM NaCl, 0.05 mM ….
Another data set addresses GII.17 HuNoV VLP (Human norovirus GII.17 …, UniProt A0A0E3X5I8 1-540). Nature of the data set: AuNP colorimetric competition; A620/A520 < 0.4; BLI: PBST + 5 mM Mg2+, biotin-aptamer 100 nM, VLP 18.75-150 nM, Octet RED96; ELASA: VLP 3 ug/mL, aptamer 1 uM; CD: 10 mM Tris-HCl pH 7.4, 1.0 mM NaCl, 0.05 mM MgCl2, room temperature. The conditions noted are these: protein: recombinant; chain copies: 180; label: biotin (5' in the colorimetric assay); stem-loops.

In another data set the target is GII.2 HuNoV VLP (Human norovirus GII.2 Env/CHN/2016, UniProt A0A291L9K1 1-542). The data set is described as above. The conditions noted are these: protein: recombinant; tags: His; chain copies: 180; label: biotin (5' in the colorimetric assay); stem-loops.

“AACACGACCCACGTACCTGTGCGAGACACAGACCACCAAGGTGGGC [AP4-11]”: in data set [1], the Kd was found to be 2.28 nM.

For the molecule “AACACGACCCACGTACCTGTGTGAGACACAGACCACCAAGGTGGGC [AP4-11-2 (C22T)]”, the binding signal (% of AP4-11 (46% loss)) in data set [2] was 54. Moreover, the dissociation constant Kd in data set [1] (5 mM Mg2+, poor fit R2=0.86) came to 4.62 nM.

For AACACGACCCACGTACCTGTGCGAGACACAGACCACCAAGGTGGGC (structured_DNA) [AP4-11], the binding result with GII.17 HuNoV VLP and in the data set with GII.2 HuNoV VLP was “no binding” each time.
